According to patent US20260176627A1 (University of Washington, published 2026):

Molecular target: T1, NLS-λN-GFP1-10
T1 construct: also called LambdaN-GFP1-10; second protein of pCMV::GFP11-NLS-MCP-IRES-NLS-λN-GFP1-10; not shown: my translati
Assay: split-GFP complementation, fluorescence in transfected HEK293T cells

B1: GFP11-NLS-MCP (other, not shown: small tags and cut ends)
chain: MRDHMVLHESVNAAGITASNFTQFVLVDNGGTGDVTVAPSNFANGVAEWISSNSRSQAYKVTCSVRQSSAQKRKYTIKVEVPKVATQTVGGVELPVAAWRSYLNMELTIPIFATNSDCELIVKAMQGLLKDGNPIPSAIAANSGLY
notes: linker and NLS are known only from the DNA; also called first protein of pCMV::GFP11-NLS-MCP-IRES-NLS-λN-GFP1-10; Split-GFP-RNAadaptor (one of the pair)
B1: binds.
